# Assay results reported in patent publication US20230136299A1, “TREATMENT OF LIVER FAILURE” (HEPYX LIMITED, priority 2020, published 2023).
# Several values for one entry are separate records, joined by “and”; a condition that tells them apart may be missing. Identical values can stand only once. Entries after “also recorded” stand apart in the source; their conditions may differ.
# B1: G-CSF: Granulocyte colony stimulating factor, a glycoprotein that mobilizes stem and immune cells; recombinant murine G-CSF used in mice (protein, UniProt P09920 31-208, looked up)
# Granulocyte …: VPLVTVSALPPSLPLPRSFLLKSLEQVRKIQASGSVLLEQLCATYKLCHPEELVLLGHSLGIPKASLSGCSSQALQQTQCLSQLHSGLCLYQGLLQALSGISPALAPTLDLLQLDVANFATTIWQQMENLGVAPTVQPTQSAMPAFTSAFQRRAGGVLAISYLQGFLETARLALHHLA
# How the values were obtained:
# [1] = test system: C57B/6 mice with CCL4 + LPS induced ACLF; assay: CCL4 + LPS ACLF mouse model; type: in vivo
# Experimental: Thereafter injection of LPS (Klebsiella, 4 mg/kg, i.p.) served as a second hit to induce organ injury. […] CCL4- Carbontetrachloride; G-CSF - granulocyte colony stimulating factor.
# Thereafter injection of LPS (Klebsiella, 4 mg/kg, i.p.) served as a second hit to induce organ injury.
# Thereafter injection of LPS (Klebsiella, 4 mg/kg, i.p.) served as a second hit to induce organ injury. […] It majorly regulated the transition from G2 to M phase. […] E) BCL2 is the effector molecule of the STAT3 pathway which carries anti-apoptotic and antibacterial properties. […] Image J was used for image quantification and group comparison was performed by one-way ANOVA and post-hoc Tukey’s multiple comparison mRNA data is delineated as ddCt value. Western blots were performed with protein lysates pooled from all animals per group. G) Liver protein expression of markers of inflammation, cell death and regeneration/senescence (CC14-LPS 24 h treatment model). Liver lysates from 4 randomly selected animals per group were pooled and applied onto one profiler membrane.
# Second, due to the conflicting data concerning the therapeutic benefit of G-CSF the present inventors performed pre-clinical studies in well-established rodent models of ACLF in order to clarify the effect of stem cell mobilisation. C57BL/6 Mice were gavaged with carbon tetrachloride (CCL4) for 6 weeks to induce liver fibrosis and subsequently injected with lipopolysaccharide (LPS) to induce tissue injury and organ failure. One hour after LPS injection mice were treated with G-CSF subcutaneously 250 µg/kg once daily for 5 consecutive days (FIG. 1A).
# The inventors then tested whether TLR4 inhibition (e.g. TAK-242) rescues from G-CSF driven injury and inflammation in preclinical models of ACLF.
# [2] = test system: C57B/6 mice with CCL4 + GalN induced ACLF; assay: CCL4 + galactosamine (GalN) non-inflammatory ACLF mouse model
# Experimental: C57B/6 mice were gavaged for 6-weeks with carbon tetrachloride (CC14) 0.5 ml/ml to induce chronic liver injury (n=8 per group). Thereafter, galactosamine (GalN) (1000 mg/kg) was administered to induce a non-inflammatory liver injury and treatment with the RIPK1 inhibitor, RIPA56 3 mg/kg i.p. was initiated every 12-hrs.
# patients with ACLF [3] = conditions: from 30% without G-CSF; cited from earlier work
# THP1 monocytes = assay: THP1 response to LPS after G-CSF stimulation, monocytes; type: cell-based; conditions: LPS 10 ng/mL ± G-CSF 100 ng/mL, TAK-242 200 nM, compared to unstimulated cells
# Experimental: (§1) Densitometry was measured by using ImageJ and values are depicted as mean pixel density. After sample pooling no statistical comparison could be applied. H) Liver aSMA expression (CC14-LPS 24 hours treatment model) Liver sections were stained for aSMA (n=4 per group) as a marker of stellate cell activation. LPS increased the aSMA positive area from 1.4% ± 0.6 in CC14 animals to 8.6% ± 1.9 (p<0.001) and 9% ± 4.1 (p<0.001) when combined with G-CSF. […] Image J was used for image quantification and group comparison was performed by one-way ANOVA and post-hoc Tukey’s multiple comparison. I) THP1 response to LPS after G-CSF stimulation. THP1 were PMA activated into a macrophage like phenotype and stimulated with LPS (10 ng/mL) ± G-CSF (100 ng/mL) (2 batches in 2 replicates). Treatment was performed with TAK-242 200 nM in two of the groups. RNA extraction to measure cytokine response was performed 3-hr after LPS incubation. LPS induced an upregulation of IL-6 mRNA expression 60.2-fold in THP1 monocytes and 6.2-fold in macrophages which was enhanced by pre-incubation with G-CSF (monocytes 71-fold, macrophages 6.7-fold). TAK-242 reduced IL-6 mRNA expression compared to unstimulated cells to 5.1-fold in monocytes and 2.8-fold in macrophages resembling biological significance. […] G-CSF exaggerated the IL-1b expression 2.5-fold compared to unstimulated cells whereas it remained unchanged in macrophages (1.1-fold compared to unstimulated cells). TAK-242 decreased the IL-1b response in both cell lines (monocytes 1.3-fold and macrophages 0.7-fold compared to unstimulated cells). J) Proliferative effect of G-CSF after CC14. […] G-CSF (250 µg/kg, s.c.) was injected without previous LPS administration once daily for 5-days. Results were compared to groups administered LPS. […] Ki67 expression as a marker of hepatocyte division increased from 0.6% ± 0.2 after CC14 + LPS + G-CSF to 4.1% ± 2.9 (p<0.001) after CC14 + G-CSF. Image J was used for image quantification and group comparison was performed by one-way ANOVA and post-hoc Tukey’s multiple comparison.
# (§2) Monocytes and macrophages are major source of cytokine release in liver disease. The inventors therefore tested in vitro, to what extent LPS and G-CSF modulate the cytokine response in PMA activated and native THP1 cells. […] These in vitro findings are in keeping with hepatic IL6 levels, which increased 2.8-fold in G-CSF-treated animals (FIG. 4D). […] The data help to explain the reduction in markers of organ injury in the ACLF animals treated with G-CSF/TAK-242.
# [4] = test system: C57B/6 mice with CCL4 induced chronic liver injury; assay: G-CSF after CCL4 without LPS (chronic liver injury mice); type: in vivo; conditions: CCl4 + G-CSF 250 µg/kg s.c. once daily for 5-days, no LPS
# Experimental: Densitometry was measured by using ImageJ and values are depicted as mean pixel density. After sample pooling no statistical comparison could be applied. H) Liver aSMA expression (CC14-LPS 24 hours treatment model) Liver sections were stained for aSMA (n=4 per group) as a marker of stellate cell activation. LPS increased the aSMA positive area from 1.4% ± 0.6 in CC14 animals to 8.6% ± 1.9 (p<0.001) and 9% ± 4.1 (p<0.001) when combined with G-CSF. […] Image J was used for image quantification and group comparison was performed by one-way ANOVA and post-hoc Tukey’s multiple comparison. I) THP1 response to LPS after G-CSF stimulation. THP1 were PMA activated into a macrophage like phenotype and stimulated with LPS (10 ng/mL) ± G-CSF (100 ng/mL) (2 batches in 2 replicates). Treatment was performed with TAK-242 200 nM in two of the groups. RNA extraction to measure cytokine response was performed 3-hr after LPS incubation. LPS induced an upregulation of IL-6 mRNA expression 60.2-fold in THP1 monocytes and 6.2-fold in macrophages which was enhanced by pre-incubation with G-CSF (monocytes 71-fold, macrophages 6.7-fold). […] Image J was used for image quantification and group comparison was performed by one-way ANOVA and post-hoc Tukey’s multiple comparison.
# patients with ACLF [5] = assay: GRAFT multicentre randomised controlled trial of G-CSF in ACLF (NCT02669680); type: in vivo, human
# Source text: The pathobiology of ACLF is characterised by immunopathological features comprising two opposing mechanisms as the main drivers of organ failure which are active concurrently. The first is systemic and hepatic inflammation triggered by pathogen-associated molecular patterns (PAMPs) and cell death molecules (damage associated molecular patterns (DAMPs)) mediated through the TLR4 receptor pathway. PAMPs derive through translocation of gut-derived bacteria and bacterial products (such as lipopolysaccharide-LPS) to the liver via portal the portal vein, promoting pro-inflammatory responses through the toll-like 4 (TLR4) -dependent canonical inflammasome on immune cells, as well as the TLR4-independent non-canonical inflammasome in hepatocytes (3). […] The second is a prolonged organ injury, immune cell paralysis and failure of regeneration facilitating prolonged organ dysfunction and secondary infections culminating into a vicious cycle leading to multi-organ failure and death. Stem cells and other regulatory immune cells are known to modulate immune activation thereby modulating inflammatory reactions and supporting tissue repair capacities (5). Granulocyte colony stimulating factor (G-CSF) mobilizes stem and immune cells and is perceived to carry immunomodulatory and pro-regenerative properties. […]
# [6] = test system: PMA-activated THP1 macrophage-like cells; assay: THP1 response to LPS after G-CSF stimulation, PMA activated macrophages; type: cell-based; conditions: LPS 10 ng/mL ± G-CSF 100 ng/mL, TAK-242 200 nM, compared to unstimulated cells
# Experimental: as §1, §2
# [7] = 48 hours treatment, value (range)
molecule,measurement,setting,value
B1,liver fibrosis (Sirius Red),[1]; 5-days G-CSF treatment,higher degree of liver fibrosis; also recorded: enhanced liver fibrosis; also recorded: pro-fibrotic effect
same,hepatic macrophage infiltration (F4/80+),[1]; 5 days G-CSF treatment,persisted; also recorded: aggravated liver macrophage infiltration; also recorded: maintained macrophage infiltration
same,proliferating (Cyclin A positive) hepatocytes,[1]; 5 days treatment,increased the number of proliferating hepatocytes significantly
same,Cyclin A2 expressing hepatocytes,"[1]; CCl4 + LPS + G-CSF, 5 days",1.4% ± 0.7
same,Ki67 expression (hepatocyte division),"[1]; CCl4 + LPS + G-CSF, 5 days",0.6% ± 0.2
same,CyclinA2/TUNEL ratio,[1]; CCl4-LPS 24-hr treatment model,0.04
same,mortality,"[1]; G-CSF 250 µg/kg s.c. once daily, within 48 hours after LPS injection",50% and 66%
same,"hepatic IL6 levels, increase",[1]; G-CSF-treated animals (FIG. 4D),2.8 fold
same,survival,"[1]; after 48 hours, G-CSF 250 µg/kg s.c. +/- TAK-242 10 mg/kg i.p.",50%
same,number of senescent hepatocytes,[1]; after 5 days of treatment,plummet significantly
same,TLR4+ liver infiltrating CD45+ cells,[1]; after G-CSF treatment (FIG. 2C),increased
same,CDKN2A (p16) mRNA level,[1]; after LPS injection,decreased in a stepwise manner
same,aSMA positive area (stellate cell activation),"[1]; liver sections, CCl4-LPS 24 hours treatment model, n=4 per group",9% ± 4.1
same,"hepatic cytokine expression (mRNA) (IL6, TNFa)","[1]; mouse, in vivo",increased
same,number of p53 positive (senescent) hepatocytes,"[1]; mouse, in vivo",reduced numerically
same,"injury markers (such as Lipocalin/NGAL and IL-13), protein profiler","[1]; pooled liver lysates, 24 h treatment model",increased
same,RIPK3 expression (necroptotic cell death),[2]; [7],1.9% (range 0.9-2.5)
same,liver cell death (TUNEL),[2]; [7],1.2% (range 0.4-1.9)
same,cell death and subsequent regenerative response,"[2]; mouse, in vivo",reduced cell death and the subsequent regenerative response
same,"degree of proliferating (Cyclin A2, Ki67) and senescent (p21) hepatocytes","[2]; mouse, in vivo",reduced
same,survival after 60 days,patients with ACLF [3],70%
same,IL-6 mRNA expression,THP1 monocytes; 3-hr after LPS,71 fold
same,IL-1b expression,THP1 monocytes,2.5 fold
same,Cyclin A2 expressing hepatocytes,[4],2.1% ± 1.3
same,Ki67 expression (hepatocyte division),[4],4.1% ± 2.9
same,survival rate / mortality of patients with ACLF,"patients with ACLF [5]; 163 patients, G-CSF vs standard of care, interim analysis",did not improve the survival rate; also recorded: no effect on mortality
same,"mortality in subgroups (alcoholic hepatitis, ACLF according to the APASL criteria)",patients with ACLF [5]; in vivo,tend to increased mortality; also recorded: may be deleterious
same,IL-6 mRNA expression,[6]; 3-hr after LPS,6.7 fold
same,IL-1b expression,[6],1.1 fold
